Source: patent US7163817

How the values were obtained:
[1] = target: T1, native SK from Streptococcus sp. (ATCC 12449)
T1 chain: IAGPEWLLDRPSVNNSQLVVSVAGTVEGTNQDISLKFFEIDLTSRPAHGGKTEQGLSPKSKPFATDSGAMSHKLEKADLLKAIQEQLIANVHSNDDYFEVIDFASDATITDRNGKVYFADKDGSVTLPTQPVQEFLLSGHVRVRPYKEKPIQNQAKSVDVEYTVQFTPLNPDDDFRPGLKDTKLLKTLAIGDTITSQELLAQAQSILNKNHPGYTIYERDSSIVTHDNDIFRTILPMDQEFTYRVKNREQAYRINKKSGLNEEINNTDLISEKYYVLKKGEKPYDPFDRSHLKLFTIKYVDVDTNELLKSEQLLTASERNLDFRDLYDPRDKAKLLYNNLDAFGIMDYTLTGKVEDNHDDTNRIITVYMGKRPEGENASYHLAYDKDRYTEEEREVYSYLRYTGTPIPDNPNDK

[2] = target: FBD(4,5)-SK chimeric protein
[3] = target: T2, Met-SK (recombinant SK purified from E. coli)
T2 chain: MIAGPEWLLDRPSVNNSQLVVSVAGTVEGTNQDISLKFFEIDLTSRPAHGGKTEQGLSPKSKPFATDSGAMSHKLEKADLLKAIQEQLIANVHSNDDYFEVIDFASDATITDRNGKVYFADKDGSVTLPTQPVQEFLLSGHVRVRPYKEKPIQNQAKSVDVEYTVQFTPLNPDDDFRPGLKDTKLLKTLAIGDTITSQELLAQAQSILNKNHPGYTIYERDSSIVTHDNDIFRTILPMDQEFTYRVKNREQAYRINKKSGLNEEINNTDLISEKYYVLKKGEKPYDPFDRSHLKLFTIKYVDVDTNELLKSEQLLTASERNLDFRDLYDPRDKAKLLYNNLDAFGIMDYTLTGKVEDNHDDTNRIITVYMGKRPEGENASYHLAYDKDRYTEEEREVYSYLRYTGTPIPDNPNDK

[4] = target: SK-FBD(4,5) chimeric protein, SK[residues 1-383]-(gly-gly-gly)-[FBD(4,5)]
[5] = target: T3, SK-FBD(1,2) chimeric protein
T3 chain: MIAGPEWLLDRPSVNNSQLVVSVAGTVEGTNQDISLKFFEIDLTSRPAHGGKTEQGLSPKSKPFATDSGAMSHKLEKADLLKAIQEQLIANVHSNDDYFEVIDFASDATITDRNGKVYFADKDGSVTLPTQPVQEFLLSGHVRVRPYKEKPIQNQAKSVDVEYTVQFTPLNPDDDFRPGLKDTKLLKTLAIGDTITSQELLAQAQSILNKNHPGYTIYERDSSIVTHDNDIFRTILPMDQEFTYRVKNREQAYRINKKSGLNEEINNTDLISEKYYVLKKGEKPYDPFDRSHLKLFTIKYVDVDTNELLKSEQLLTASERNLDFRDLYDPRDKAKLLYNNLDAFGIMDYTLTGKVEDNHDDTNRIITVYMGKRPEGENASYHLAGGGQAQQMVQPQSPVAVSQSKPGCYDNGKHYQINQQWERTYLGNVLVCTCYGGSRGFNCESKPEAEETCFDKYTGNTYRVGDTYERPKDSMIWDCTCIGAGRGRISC

[6] = target: FBD(4,5)-SK-FBD(4,5) chimeric protein

B1: human plasminogen (protein)
chain: EPLDDYVNTQGASLFSVTKKQLGAGSIEECAAKCEEDEEFTCRAFQYHSKEQQCVIMAENRKSSIIIRMRDVVLFEKKVYLSECKTGNGKNYRGTMSKTKNGITCQKWSSTSPHRPRFSPATHPSEGLEENYCRNPDNDPQGPWCYTTDPEKRYDYCDILECEEECMHCSGENYDGKISKTMSGLECQAWDSQSPHAHGYIPSKFPNKNLKKNYCRNPDRELRPWCFTTDPNKRWELCDIPRCTTPPPSSGPTYQCLKGTGENYRGNVAVTVSGHTCQHWSAQTPHTHNRTPENFPCKNLDENYCRNPDGKRAPWCHTTNSQVRWEYCKIPSCDSSPVSTEQLAPTAPPELTPVVQDCYHGDGQSYRGTSSTTTTGKKCQSWSSMTPHRHQKTPENYPNAGLTMNYCRNPDADKGPWCFTTDPSVRWEYCNLKKCSGTEASVVAPPPVVLLPDVETPSEEDCMFGNGKGYRGKRATTVTGTPCQDWAAQEPHRHSIFTPETNPRAGLEKNYCRNPDGDVGGPWCYTTNPRKLYDYCDVPQCAAPSFDCGKPQVEPKKCPGRVVGGCVAHPHSWPWQVSLRTRFGMHFCGGTLISPEWVLTAAHCLEKSPRPSSYKVILGAHQEVNLEPHVQEIEVSRLFLEPTRKDIALLKLSSPAVITDKVIPACLPSPNYVVADRTECFITGWGETQGTFGAGLLKEAQLPVIENKVCNRYEFLNGRVQSTELCAGHLAGGTDSCQGDSGGPLVCFEKDKYILQGVTSWGLGCARPNKPGVYVRVSRFVTWIEGVMRNN
Kplg (Km for HPG), steady-state HPG activation, chromogenic one-stage assay [1]: 0.14 µM
Kplg (Km for HPG), steady-state HPG activation, chromogenic one-stage assay, linear phase after the lag [2]: 0.16 µM
Kplg (Km for HPG), steady-state HPG activation, chromogenic one-stage assay [3]: 0.18 µM
Kplg (Km for HPG), steady-state HPG activation, chromogenic one-stage assay, linear phase after the lag [4]: 0.15 µM
Kplg (Km for HPG), steady-state HPG activation, chromogenic one-stage assay, linear phase after the lag [5]: 0.18 µM
Kplg (Km for HPG), steady-state HPG activation, chromogenic one-stage assay, linear phase after the lag [6]: 0.2 µM
